Laboratory results from PMC10726570.

Key:
[1] = molecular target: human neonatal Fc receptor (human-FcRn) (human) (UniProt P55899)
[2] = molecular target: human neonatal Fc receptor (human-FcRn) (human) (UniProt P55899); experiment: SPR; format and conditions not told in the text (who was immobilised, pH, buffer); shown in Fig. S1B-C
[3] = molecular target: monkey neonatal Fc receptor (monkey-FcRn) (monkey) (UniProt Q8SPV9); experiment: as above

Substance: PAT101, recombinant human albumin (rHA)-conjugated Aspergillus flavus urate oxidase (from UniProt Q00511 1-302; P02768 25-609) (complex)
- plasma half-life T1/2 (uricase activity) after a single i.v. dose in TG mice expressing human FcRn [1]: 95 h
- Kd [2]: 2.94 µM
- Kd [3]: 6.85 µM
